Test results reported in patent US20110166062A1 (INDIANA UNIVERSITY RESEARCH AND TECHNOLOGY, published 2011).
Where two headings read alike, the source gives them in different places. Where no end group is shown, it is not given here. [ ]: non-standard residue; d: D form. The star is where a group is joined. C18 fatty acyl = 18 carbon fatty acyl group covalently attached to Lys; PEG 40 kDa = PEG (40 kDa) covalently attached to Cys; Palmitoyl = CCCCCCCCCCCCCCCC(=O)*; Myristoyl = CCCCCCCCCCCCCC(=O)*; Dab = NCC[C@H](N)C(=O)O; Abu = CC[C@H](N)C(=O)O; Aib = CC(C)(N)C(=O)O

How the values were obtained:
Assay in all cases: cell-based or functional assay
GLP-1 receptor [1] = target: GLP-1 receptor (UniProt P43220 24-463, limits assumed)
glucagon receptor = glucagon receptor (UniProt P47871 26-477, limits assumed)
Sequence of glucagon receptor (P47871 26-477 limits assumed): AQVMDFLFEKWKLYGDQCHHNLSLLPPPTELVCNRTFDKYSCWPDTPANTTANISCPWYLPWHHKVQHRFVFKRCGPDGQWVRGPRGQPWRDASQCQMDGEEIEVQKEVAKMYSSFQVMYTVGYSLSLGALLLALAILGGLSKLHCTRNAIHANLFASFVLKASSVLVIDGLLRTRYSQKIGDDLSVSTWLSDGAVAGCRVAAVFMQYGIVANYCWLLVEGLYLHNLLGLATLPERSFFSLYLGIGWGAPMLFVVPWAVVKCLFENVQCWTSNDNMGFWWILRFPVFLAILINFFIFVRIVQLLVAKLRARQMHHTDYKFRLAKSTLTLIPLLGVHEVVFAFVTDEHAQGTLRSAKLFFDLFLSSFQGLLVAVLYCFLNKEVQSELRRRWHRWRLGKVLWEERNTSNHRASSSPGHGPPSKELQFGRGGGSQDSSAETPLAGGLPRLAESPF

GIP receptor = target: T1, GIP receptor (UniProt P48546 22-466)
T1 sequence (looked up): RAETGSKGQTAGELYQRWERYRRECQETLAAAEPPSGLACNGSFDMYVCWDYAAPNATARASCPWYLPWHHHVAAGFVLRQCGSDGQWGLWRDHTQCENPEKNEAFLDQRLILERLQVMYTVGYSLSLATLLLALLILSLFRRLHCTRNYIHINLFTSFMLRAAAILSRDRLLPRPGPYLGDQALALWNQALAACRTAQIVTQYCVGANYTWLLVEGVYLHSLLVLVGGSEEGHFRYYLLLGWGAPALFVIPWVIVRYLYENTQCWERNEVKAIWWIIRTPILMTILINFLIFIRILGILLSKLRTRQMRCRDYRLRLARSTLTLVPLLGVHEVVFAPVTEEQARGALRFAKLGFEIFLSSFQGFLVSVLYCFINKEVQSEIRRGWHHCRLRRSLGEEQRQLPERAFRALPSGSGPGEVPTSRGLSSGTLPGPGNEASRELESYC

GLP-1 receptor [2] = target: GLP-1 receptor (UniProt P43220 24-463, limits assumed); remark: listed apart in the source

B1: mt-276 (peptide)
peptide: Y[Aib]QGTFTSDYSIYLD[Dab]QAA[Aib]EFVNWLLAGGPSSGAPPPSC-NH2
modifications: N-terminus assumed
SMILES: CC[C@H](C)[C@H](NC(=O)[C@H](CO)NC(=O)[C@H](Cc1ccc(O)cc1)NC(=O)[C@H](CC(=O)O)NC(=O)[C@H](CO)NC(=O)[C@@H](NC(=O)[C@H](Cc1ccccc1)NC(=O)[C@@H](NC(=O)CNC(=O)[C@H](CCC(N)=O)NC(=O)C(C)(C)NC(=O)[C@@H](N)Cc1ccc(O)cc1)[C@@H](C)O)[C@@H](C)O)C(=O)N[C@@H](Cc1ccc(O)cc1)C(=O)N[C@@H](CC(C)C)C(=O)N[C@@H](CC(=O)O)C(=O)N[C@@H](CCN)C(=O)N[C@@H](CCC(N)=O)C(=O)N[C@@H](C)C(=O)N[C@@H](C)C(=O)NC(C)(C)C(=O)N[C@@H](CCC(=O)O)C(=O)N[C@@H](Cc1ccccc1)C(=O)N[C@H](C(=O)N[C@@H](CC(N)=O)C(=O)N[C@@H](Cc1c[nH]c2ccccc12)C(=O)N[C@@H](CC(C)C)C(=O)N[C@@H](CC(C)C)C(=O)N[C@@H](C)C(=O)NCC(=O)NCC(=O)N1CCC[C@H]1C(=O)N[C@@H](CO)C(=O)N[C@@H](CO)C(=O)NCC(=O)N[C@@H](C)C(=O)N1CCC[C@H]1C(=O)N1CCC[C@H]1C(=O)N1CCC[C@H]1C(=O)N[C@@H](CO)C(=O)N[C@@H](CS)C(N)=O)C(C)C
EC50 (GLP-1 receptor [1]): 0.0066 nM
relative activity (GLP-1 receptor [1]): 108%
EC50 (glucagon receptor): 0.0537 nM
relative activity (glucagon receptor): 77.7%
EC50 (GIP receptor): 0.008 nM
relative activity (GIP receptor): 174%

Y[Aib]EGTFTSDYSIYLDKQAA[Aib]EFVC(PEG 40 kDa)WLLAGGPSSGAPPPSK(Myristoyl)-NH2 [mt-309]
EC50 (GLP-1 receptor [1]): 0.0104 nM
relative activity (GLP-1 receptor [1]): 151%
EC50 (glucagon receptor): 3.61 nM
relative activity (glucagon receptor): 1.77%
EC50 (GIP receptor): 0.0091 nM
relative activity (GIP receptor): 226%

B2: mt-325 (peptide)
peptide: Y[Aib]QGTF[Abu]SDYSIYLDKQAA[Aib]EFVNWLLAGGPSSGAPPPSC-NH2
modifications: N-terminus assumed
SMILES: CC[C@H](NC(=O)[C@H](Cc1ccccc1)NC(=O)[C@@H](NC(=O)CNC(=O)[C@H](CCC(N)=O)NC(=O)C(C)(C)NC(=O)[C@@H](N)Cc1ccc(O)cc1)[C@@H](C)O)C(=O)N[C@@H](CO)C(=O)N[C@@H](CC(=O)O)C(=O)N[C@@H](Cc1ccc(O)cc1)C(=O)N[C@@H](CO)C(=O)N[C@H](C(=O)N[C@@H](Cc1ccc(O)cc1)C(=O)N[C@@H](CC(C)C)C(=O)N[C@@H](CC(=O)O)C(=O)N[C@@H](CCCCN)C(=O)N[C@@H](CCC(N)=O)C(=O)N[C@@H](C)C(=O)N[C@@H](C)C(=O)NC(C)(C)C(=O)N[C@@H](CCC(=O)O)C(=O)N[C@@H](Cc1ccccc1)C(=O)N[C@H](C(=O)N[C@@H](CC(N)=O)C(=O)N[C@@H](Cc1c[nH]c2ccccc12)C(=O)N[C@@H](CC(C)C)C(=O)N[C@@H](CC(C)C)C(=O)N[C@@H](C)C(=O)NCC(=O)NCC(=O)N1CCC[C@H]1C(=O)N[C@@H](CO)C(=O)N[C@@H](CO)C(=O)NCC(=O)N[C@@H](C)C(=O)N1CCC[C@H]1C(=O)N1CCC[C@H]1C(=O)N1CCC[C@H]1C(=O)N[C@@H](CO)C(=O)N[C@@H](CS)C(N)=O)C(C)C)[C@@H](C)CC
EC50 (GLP-1 receptor [1]): 2.68 nM
relative activity (GLP-1 receptor [1]): 0.83%
EC50 (glucagon receptor): 0.0915 nM
relative activity (glucagon receptor): 86.5%
EC50 (GIP receptor): 0.0105 nM
relative activity (GIP receptor): 111%

Y[Aib]EGTFTSDYSIYLDKQAA[Aib]EFVNWLLAGGPSSGAPPPSC(PEG 40 kDa)-NH2 [mt-274]
EC50 (GLP-1 receptor [1]): 0.0916 nM
relative activity (GLP-1 receptor [1]): 7.75%
EC50 (glucagon receptor): 69.1 nM
relative activity (glucagon receptor): 0.06%
EC50 (GIP receptor): 0.035 nM
relative activity (GIP receptor): 39.7%

Y[Aib]EGTFTSDYSIYLDKQAA[Aib]EFVC(PEG 40 kDa)WLLAGGPSSGAPPPSK(Palmitoyl)-NH2 [mt-298]
EC50 (GLP-1 receptor [1]): 0.0087 nM
relative activity (GLP-1 receptor [1]): 180%
EC50 (glucagon receptor): 1.76 nM
relative activity (glucagon receptor): 3.63%
EC50 (GIP receptor): 0.0051 nM
relative activity (GIP receptor): 404%

Y[Aib]EGTFTSDYSIYLDKQAA[Aib]EFVNWLLAGGPSSGAPPPSK(Myristoyl)-NH2 [mt-260]
EC50 (GLP-1 receptor [1]): 0.0068 nM
EC50 (glucagon receptor): 0.321 nM
EC50 (GIP receptor): 0.0018 nM

Y[Aib]EGTFTSDYSIYLDKQAA[Aib]EFVNWLLAGGPSSGAPPPSK(Myristoyl)C-NH2 [mt-339]
EC50 (GLP-1 receptor [1]): 0.0092 nM
EC50 (glucagon receptor): 8.72 nM
EC50 (GIP receptor): 0.004 nM

B3: mt-324 (peptide)
peptide: Y[Aib]QGTFSSDYSIYLDKQAA[Aib]EFVNWLLAGGPSSGAPPPSC-NH2
modifications: N-terminus assumed
SMILES: CC[C@H](C)[C@H](NC(=O)[C@H](CO)NC(=O)[C@H](Cc1ccc(O)cc1)NC(=O)[C@H](CC(=O)O)NC(=O)[C@H](CO)NC(=O)[C@H](CO)NC(=O)[C@H](Cc1ccccc1)NC(=O)[C@@H](NC(=O)CNC(=O)[C@H](CCC(N)=O)NC(=O)C(C)(C)NC(=O)[C@@H](N)Cc1ccc(O)cc1)[C@@H](C)O)C(=O)N[C@@H](Cc1ccc(O)cc1)C(=O)N[C@@H](CC(C)C)C(=O)N[C@@H](CC(=O)O)C(=O)N[C@@H](CCCCN)C(=O)N[C@@H](CCC(N)=O)C(=O)N[C@@H](C)C(=O)N[C@@H](C)C(=O)NC(C)(C)C(=O)N[C@@H](CCC(=O)O)C(=O)N[C@@H](Cc1ccccc1)C(=O)N[C@H](C(=O)N[C@@H](CC(N)=O)C(=O)N[C@@H](Cc1c[nH]c2ccccc12)C(=O)N[C@@H](CC(C)C)C(=O)N[C@@H](CC(C)C)C(=O)N[C@@H](C)C(=O)NCC(=O)NCC(=O)N1CCC[C@H]1C(=O)N[C@@H](CO)C(=O)N[C@@H](CO)C(=O)NCC(=O)N[C@@H](C)C(=O)N1CCC[C@H]1C(=O)N1CCC[C@H]1C(=O)N1CCC[C@H]1C(=O)N[C@@H](CO)C(=O)N[C@@H](CS)C(N)=O)C(C)C
EC50 (GLP-1 receptor [1]): 0.23 nM
relative activity (GLP-1 receptor [1]): 9.68%
EC50 (glucagon receptor): 1.23 nM
relative activity (glucagon receptor): 6.41%
EC50 (GIP receptor): 0.0387 nM
relative activity (GIP receptor): 30.2%

FTSDYSIYLDEQAAKEFVNWLLAGGPSSGAPPPS-NH2 (not fully specified) [mt-192]
EC50 (GLP-1 receptor [2]): 47 nM
relative activity (GLP-1 receptor [2]): 0.06%

Y[Aib]EGTFTSDYSIYLDKQAA[Aib]EFVC(PEG 40 kDa)WLLAGGPSSGAPPPSK(C18 fatty acyl)-NH2 [mt-310]
EC50 (GLP-1 receptor [1]): 0.0062 nM
relative activity (GLP-1 receptor [1]): 253%
EC50 (glucagon receptor): 0.775 nM
relative activity (glucagon receptor): 8.24%
EC50 (GIP receptor): 0.0075 nM
relative activity (GIP receptor): 275%

B4: mt-308 (peptide)
peptide: Y[Aib]EGTFTSDYSIYLDKQAA[Aib]EFVCWLLAGGPSSGAPPPSK-NH2
modifications: N-terminus assumed
SMILES: CC[C@H](C)[C@H](NC(=O)[C@H](CO)NC(=O)[C@H](Cc1ccc(O)cc1)NC(=O)[C@H](CC(=O)O)NC(=O)[C@H](CO)NC(=O)[C@@H](NC(=O)[C@H](Cc1ccccc1)NC(=O)[C@@H](NC(=O)CNC(=O)[C@H](CCC(=O)O)NC(=O)C(C)(C)NC(=O)[C@@H](N)Cc1ccc(O)cc1)[C@@H](C)O)[C@@H](C)O)C(=O)N[C@@H](Cc1ccc(O)cc1)C(=O)N[C@@H](CC(C)C)C(=O)N[C@@H](CC(=O)O)C(=O)N[C@@H](CCCCN)C(=O)N[C@@H](CCC(N)=O)C(=O)N[C@@H](C)C(=O)N[C@@H](C)C(=O)NC(C)(C)C(=O)N[C@@H](CCC(=O)O)C(=O)N[C@@H](Cc1ccccc1)C(=O)N[C@H](C(=O)N[C@@H](CS)C(=O)N[C@@H](Cc1c[nH]c2ccccc12)C(=O)N[C@@H](CC(C)C)C(=O)N[C@@H](CC(C)C)C(=O)N[C@@H](C)C(=O)NCC(=O)NCC(=O)N1CCC[C@H]1C(=O)N[C@@H](CO)C(=O)N[C@@H](CO)C(=O)NCC(=O)N[C@@H](C)C(=O)N1CCC[C@H]1C(=O)N1CCC[C@H]1C(=O)N1CCC[C@H]1C(=O)N[C@@H](CO)C(=O)N[C@@H](CCCCN)C(N)=O)C(C)C
EC50 (GLP-1 receptor [1]): 0.0237 nM
EC50 (GIP receptor): 0.0057 nM

Y[Aib]EGTFTSDYSIYLDKQAA[Aib]EFVC(PEG 40 kDa)WLLAGGPSSGAPPPSK-NH2 (also: PEG linkage structure not given here) [mt-331]
EC50 (GLP-1 receptor [1]): 0.448 nM
relative activity (GLP-1 receptor [1]): 4.53%
EC50 (glucagon receptor): 408 nM
relative activity (glucagon receptor): 0.02%
EC50 (GIP receptor): 0.0968 nM
relative activity (GIP receptor): 10.6%

YXQGTFTSDYSIYLDXQAAXEFVNWLLAGGPSSGAPPPSC (Orn at position 16; AIB at position 20) [mt-275]
EC50 (GLP-1 receptor [1]): 0.0068 nM
relative activity (GLP-1 receptor [1]): 104%
EC50 (glucagon receptor): 0.0671 nM
relative activity (glucagon receptor): 62.1%
EC50 (GIP receptor): 0.0124 nM
relative activity (GIP receptor): 112%

Y[Aib]EGTFTSDYSIYLDKQAA[Aib]EFVC(PEG 40 kDa)WLLAGGPSSGAPPPSK-NH2 (not fully specified) [mt-311]
EC50 (GLP-1 receptor [1]): 0.217 nM
relative activity (GLP-1 receptor [1]): 7.22%
EC50 (glucagon receptor): 197 nM
relative activity (glucagon receptor): 0.03%
EC50 (GIP receptor): 0.0545 nM
relative activity (GIP receptor): 37.8%

Y[Aib]EGTFTSDYSIYLDKQAA[Aib]EFVNWLLAGGPSSGAPPPSKC-NH2 [mt-340]
EC50 (GLP-1 receptor [1]): 0.0061 nM
EC50 (glucagon receptor): 10.5 nM
EC50 (GIP receptor): 0.0028 nM
